# Source: patent publication US20080305111A1, “Anti-C35 antibodies for treating cancer” (VACCINEX, INC., priority 2006, published 2008)
# “Also recorded” adds a separate entry of the source.
# T1: C35 (Homo sapiens, UniProt Q9BRT3)
# T1 sequence (Q9BRT3 1-115): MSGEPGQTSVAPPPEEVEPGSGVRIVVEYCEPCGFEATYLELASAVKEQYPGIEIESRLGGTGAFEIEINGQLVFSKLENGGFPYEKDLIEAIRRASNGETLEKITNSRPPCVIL
# T2: recombinant human C35 (rhC35) (Homo sapiens, UniProt Q9BRT3)
# T2 construct: made in house; host or cells: E. coli
# T2 sequence (Q9BRT3 1-115): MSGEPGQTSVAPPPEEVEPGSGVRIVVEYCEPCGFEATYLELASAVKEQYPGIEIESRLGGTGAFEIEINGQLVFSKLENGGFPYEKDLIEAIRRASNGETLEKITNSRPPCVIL
# T3: rC35 (Homo sapiens, UniProt Q9BRT3)
# T3 construct: made in house; host or cells: E. coli
# T3 sequence (Q9BRT3 1-115): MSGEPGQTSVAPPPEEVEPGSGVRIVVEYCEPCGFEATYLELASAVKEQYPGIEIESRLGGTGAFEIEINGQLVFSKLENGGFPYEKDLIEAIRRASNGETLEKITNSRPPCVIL
# Assays:
# C35 [1] = molecular target: T1, C35; test: Characterisation of hybridoma antibodies (ELISA, Western blot, immunohistochemistry, competitive binding ELISA); conditions: for binding to recombinant C35 protein: ELISA and Western Blot
# Procedure: Hybridoma cell lines 1F2.4.1 and 1B3.6.1, specific for C35 polypeptides, were prepared using hybridoma technology. (Kohler et al., Nature 256:495 (1975); Kohler et al., Eur. J. Immunol. 6:511 (1976); Kohler et al., Eur. J. Immunol. 6:292 (1976); Hammerling et al., in: Monoclonal Antibodies and T-Cell Hybridomas, Elsevier, N.Y., pp. 571-681 (1981)). Briefly, hybridoma cell lines were generated using standard PEG fusion to the non-secreting myeloma cell line NS-1 (P3/NS1/1-AG4-1, ATCC #TIB-18) of splenocytes from BALB/c mice immunized with syngeneic BCA34 fibroblast tumor cells transduced to over express C35. Following PEG fusion to NS-1, the hybridomas were grown in methylcellulose semi-solid media. Approximately 2 weeks later, hybridoma colonies were isolated into 96 well plates and individual supernatants were tested for reactivity with C35 by ELISA, Western blot, and immunohistochemistry. Positive hybridoma colonies were subcloned and screened for reactivity twice to ensure clonality. Antibodies were isolated from hybridoma supernatants by protein G affinity purification using standard methods. […] In addition, the present inventors developed intracellular staining flow cytometry assays for quantitative analysis using antibodies from hybridoma cell line 1F2 conjugated to Alexa-647 fluorochrome. Each of these antibodies is distinct, yet both are specific for C35 protein. It is possible to immunoprecipitate C35 protein from cell lysates with either of these antibodies and detect with the other.
# [2] = system: C35-positive MDA231 tumor cells; test: Two C35 antibodies and paclitaxel in MDA231 xenograft (FIG. 12); type: in vivo, Swiss nude mice; conditions: antibody 20 mg/kg i.v. twice weekly for three weeks, paclitaxel 30 mg/kg i.p. days 17 and 24
# Procedure: As illustrated in FIG. 12 and described in this example, methods of treating cancer directed to the administration of two C35 antibodies in combination with a chemotherapeutic agent were tested. Five million C35-positive MDA231 tumor cells were implanted subcutaneously in the mammary fat pads of Swiss nude mice. Groups of at least five mice each received the following treatments, beginning on day 17 post-graft: • 1. No Treatment (Control Group) • 2. 30 mg/kg i.p. injection of paclitaxel on days 17 and 24. • 3. 30 mg/kg i.p. injection of paclitaxel on days 17 and 24, together with 400 μg per i.v. injection (20 mg/kg) of 1F2 murine monoclonal antibody starting on day 17 and continuing twice weekly for three weeks. • 4. 30 mg/kg i.p. injection of paclitaxel on days 17 and 24, together with 400 μg per i.v. injection (20 mg/kg) of […] murine monoclonal antibody starting on day 17 and continuing twice weekly for three weeks. • 5. […]
# Average mouse tumor volume was measured at various time points post-graft. Two measurements were taken with vernier calipers on each tumor; tumor volume was calculated using the formula (length×width^2)/2. […]
# [3] = molecular target: T2, recombinant human C35 (rhC35); test: Epitope mapping by Lys-C digestion of rhC35 and Western blot; type: binding; conditions: residues numbered from amino terminal methionine of native human C35
# Source text: To localize the epitope specificity of 1B3 and 1F2 antibodies, recombinant human C35 (rhC35) synthesized with a 6×His tag in E. coli was digested with Lys-C endoproteinase. This enzyme cuts after lysine (K) residues in the protein sequence. […] The full sequence of rhC35, including the amino terminal 6×His tag addition is shown. Amino acid positions are numbered relative to the amino terminal methionine (M) of the native human sequence. Note that digestion at the first and third lysine followed by negatively charged residues is inefficient and some longer combination fragments may be generated. Lys-C endoproteinase was added to purified rhC35 at a 50:1 weight ratio and incubated for 18 hours at 37° C. in 25 mM Tris, pH 8.0. The digest was ethanol precipitated and resolubilized in reducing Tricine sample buffer. […] Peptides were transferred to PVDF membranes and the blots depicted in FIG. 10 were either stained with Coomassie blue (lanes 1-3 of both left and right panels) to detect all peptides or processed with one of the following: 1 μg/ml of the murine 1F2 anti-C35 antibody followed by alkaline phosphatase conjugated goat anti-mouse antibody (lane 4 of left panel); 1 μg/ml of the 1B3 anti-C35 immunoglobulin variable regions linked to human constant regions (MAb11) followed by alkaline phosphatase conjugated goat anti-human antibody (lane 5 of left panel); or anti-6×His tag mouse antibody (Amersham) followed by alkaline phosphatase conjugated goat anti-mouse antibody (lane 4 and 5 of right panel). BCIP/NBT substrate was added and developed to detect the secondary reagents. Molecular weight markers are indicated in the flanking lanes of both panels.
# In FIG. 10, the indicated band A migrates at the position of undigested rhC35. Note that band B stains with 1F2 but not MAb11 (1B3) anti-C35 antibody while band C stains with neither 1F2 nor MAb11 (1B3) antibody. Since bands B and C both do stain with anti-6×His tag antibody to the 6×His tag at the amino terminus of rhC35, it may be concluded that both fragments lack C-terminal peptide fragments. […]
# rC35 = molecular target: T3, rC35; test: Biacore affinity testing of MAb 163 (1:1 kinetic model); type: binding
# Procedure: To measure affinity using Biacore, a CM5 chip surface was prepared by immobilizing Goat Anti-Human IgG Fc through amine coupling. The monoclonal human antibody MAb 163 was then captured by flow over the chip containing the Goat Anti-Human IgG. The rC35 was then serial diluted into two separate series to cover a wide range of concentration points and binding efficiencies, and then the C35 was allowed to flow over the chip containing bound MAb 163. The binding was recorded in a series of sensograms. The binding was evaluated using BIAevaluation software, where the Ka and Kd were calculated by fitting the curves and correcting for Mass Transfer.
# C35 [4] = molecular target: T1, C35; test: Immunoprecipitation of C35 from 21MT1-D cell lysates; type: binding; set-up: endogenous in cells; host or cells: 21MT1-D human breast tumor cell line; conditions: detected with rabbit anti-C35 polyclonal sera; IgG negative control did not
# Procedure: The number “15” indicates the molecular weight marker at 15 kDalton. The number “163” indicates the mAb163 monoclonal antibody. “Neg IgG” indicates an IgG negative control antibody.
# Briefly, 10 ml of MAb163 in CHO cell supernatant was buffer-exchanged into PBS and concentrated to 1 ml. Concentrated MAb 163 was added to protein A beads for greater than one hour. After washing, protein A/MAb163 was added to C35-positive 21MT1-D cell lysates for 2 hours. After washing the beads, the protein was eluted with reducing sample buffer at 100° C.
# Immunoprecipitated samples were analyzed by Western blot using rabbit anti-C35 polyclonal sera. As shown in the left lane of FIG. 22, lysate from 100,000 21MT1-D cells was included on the Western blot as a control. The number “15” in FIG. 22 indicates a molecular weight marker at 15 kDalton.
# C35-negative H16N2 cells = test: Immunofluorescence staining (FMAT), C35-negative cells; type: cell-based, human; conditions: MAb163 at 3, 1, 0.3 or 0.1 μg/ml
# C35 [5] = molecular target: T1, C35; test: Western blot, tumor specific binding of MAb 163; set-up: endogenous in cells; host or cells: 21MT1-D human breast tumor cell line
# [6] = system: C35-positive 21MT1-D cells; test: Immunofluorescence staining (FMAT), C35-positive cells; type: cell-based, human; conditions: MAb163 at 3, 1, 0.3 or 0.1 μg/ml
Molecule,competitive binding ELISA (C35 [1]),binding to recombinant C35 protein (C35 [1]),"immunohistochemistry staining (C35 [1]; formalin fixed, paraffin embedded)","tumor growth, one antibody with paclitaxel [2]",epitope specificity [3],"KA (rC35; BIAevaluation, 1:1 kinetic model)","ka (rC35; MAb 163 captured on anti-human IgG Fc CM5 chip, rC35 in flow)",immunoprecipitation of C35 (C35 [4]),immunofluorescence staining (C35-negative H16N2 cells),"binding in Western blot, tumor cell lysate (C35 [5]; 21MT1-D human breast tumor cell lysate, MAb163 4.4 ug/ml)","binding in Western blot, normal cell line (C35 [5]; H16N2 normal immortalized human breast cell line lysate)","binding in Western blot, recombinant C35 (C35 [5]; rC35 purified from E. coli, 100 ng/lane)",immunofluorescence staining [6]
"1F2: mouse monoclonal anti-C35 antibody from hybridoma 1F2.4.1, gamma1 isotype, kappa light chain (SEQ ID NO:4, 6) (antibody, V domains shown) VH: DVQLQESGPGLVKPSQSLSLTCSVTGYSITSGYFWNWIRQFPGNKLEWMGYISYDGSNNSNPSLKNRISFTRDTSKNQFFLKFNSVTTDDSAAYYCTRGTTGFAYWGQGTLVTVSA VL: QIVLTQSPAIMSASPGEKVTISCSASSSVSYMNWYQQKPGSSPKPWIYHTSNLASGVPARFSGSGSGTSYSLTISSMEAEDAATYYCQQYHSYPPTFGGGTKLEIK",bind different epitopes of the C35 protein,specifically bind recombinant C35 protein in ELISA and Western Blot assays,"specifically stain formalin fixed, paraffin embedded C35 positive tumors and cell lines",neither the 1F2 nor 1B3 administered individually with the chemotherapeutic agent paclitaxel was effective in inhibiting tumor growth,specific for an epitope within the C35 residues 48-104,–,–,–,–,–,–,–,–
"MAb 163: fully human C35-specific antibody; VH from clone H730 (SEQ ID NO:62), VL from clone L74 (SEQ ID NO:66) (antibody, V domains shown, VH of MAb163 (H730); VL of MAb163 (L74)) VH: EVQLVESGGGLVKPGGSLRLSCEVSGITFSNAWMSWVRQAPGKGLEWVGRIKSKTDGGTTDYAAPVKGRFTISRDDSKNTLYLQMNSLKTEDTAVYYCSIGYYYDSSFKYGMDVWGQGTTVTVSS VL: DIQMTQSPATLSASVGDRVTITCRASQSISRWLAWYQQKPGQAPKVLIYKASTLQSGVPSRFSGSGSGTEFSLTINSLQPDDFATYYCQQYYSYLRTFGQGTKLEIK",–,–,–,–,recognizes an epitope within amino acid residues 48 to 87 of C35; also recorded: specific for an epitope within amino acid residues 48 to 87 of C35,2.96e+08 M⁻¹,284000 M⁻¹ s⁻¹,immunoprecipitated C35 protein,do not show any immunofluorescence staining,binds native C35 monomer in tumor cell lysate,binding is absent in the normal cell line,"binds the rC35 monomer (16 kD), dimer (˜32 kD), and larger aggregates",show dose-dependent immunofluorescence
"1B3: mouse monoclonal anti-C35 antibody from hybridoma 1B3.6.1, gamma1 isotype, kappa light chain (SEQ ID NO:8, 10) (antibody, V domains shown) VH: EVQLQESGPSLVKPSQTLSLTCSVTGDSITSGYWNWIRKFPGNKLEYVGYISYSGGTYYNPSLKSRISITRDTSKNHYYLQLNSVTTEDTATYYCARGAYYGGAFFPYFDVWGAGTTVTVSS VL: DVQITQSPSFLAASPGETITINCRASKYISKHLVWYQEKPGETKKLLIYSGSTLQSGLPSRFSGSGSGTDFTLTISSLEPEDFAMYYCQQHNEYPLTFGAGTKLELK",bind different epitopes of the C35 protein,specifically bind recombinant C35 protein in ELISA and Western Blot assays,–,neither the 1F2 nor 1B3 administered individually with the chemotherapeutic agent paclitaxel was effective in inhibiting tumor growth,specific for an epitope within C35 residues 105-115,–,–,–,–,–,–,–,–
